The values below come from paper PMC3424535.

The target in this data set is T1, McrB-N (N-terminal DNA-binding domain of McrB) (Escherichia coli, UniProt P15005 1-161).
T1 sequence: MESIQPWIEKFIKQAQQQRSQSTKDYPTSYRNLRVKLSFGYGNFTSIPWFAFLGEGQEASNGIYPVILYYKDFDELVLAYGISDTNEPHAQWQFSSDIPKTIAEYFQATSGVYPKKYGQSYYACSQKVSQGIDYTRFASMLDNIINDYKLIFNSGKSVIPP
Briefly: pyrrolo-dC fluorescence.

B1: p/m (dsDNA)
DNA 1: ATCTCTCTATTCACCGGTATTCTCTCTTTC
DNA 2: GAAAGAGAGAATACCGGTGAATAGAGAGAT
modifications: pyrrolo-dC at position 14 of strand 1; 5mC at position 14 of strand 2
B1: the binding signal is ~4 fold increase of pyrrolo-dC fluorescence (not affinity).

B2: p/p (dsDNA)
DNA 1: ATCTCTCTATTCACCGGTATTCTCTCTTTC
DNA 2: GAAAGAGAGAATACCGGTGAATAGAGAGAT
modifications: pyrrolo-dC at position 14 of each strand (first C of ACCGGT)
B2: the binding signal was 2.6 fold increase of pyrrolo-dC fluorescence (not affinity).
